Experiments:
[1] = biological target: T1, human CD3, membrane-expressed (CD3/TCR complex on HPB-ALL cells or purified human T cells) (human, UniProt P07766 23-207; P04234 22-171; P09693 23-182); assay: flow cytometry on HPB-ALL cells
T1 construct: whole, on cells; On cells CD3 stands in the complex with the TCR and the zeta chain; also called cell surface expressed CD3/TCR complexes

[2] = biological target: T2, recombinant purified human CLEC12A (Sino Biological Inc, cat. Nr. 11896-H07H) (human, UniProt Q5QGZ9 65-265); assay: SPR (BIAcore T100), ratio of the two KD values
T2 construct: Bought protein; also called CLEC12A protein
T2 sequence (looked up): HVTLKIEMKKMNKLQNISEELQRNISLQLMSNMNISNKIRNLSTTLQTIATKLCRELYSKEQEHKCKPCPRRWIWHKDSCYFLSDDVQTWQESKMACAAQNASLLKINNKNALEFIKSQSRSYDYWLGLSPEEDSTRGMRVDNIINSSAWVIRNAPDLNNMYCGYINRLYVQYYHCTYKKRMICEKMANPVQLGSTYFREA

[3] = biological target: T1, human CD3, membrane-expressed (CD3/TCR …); assay: flow cytometry on CD3+ HPB-ALL cells [panel HPB-ALL]
[4] = biological target: T2, recombinant purified human CLEC12A …; assay: SPR (BIAcore T100), bsAb captured by anti-human IgG on a CM5 chip, antigen in solution; average of three measurements
[5] = biological target: T1, human CD3, membrane-expressed (CD3/TCR …); assay: flow cytometry on HPB-ALL cells; remark: listed apart in the source
[6] = biological target: T1, human CD3, membrane-expressed (CD3/TCR …); assay: flow cytometry on HPB-ALL cells [lower panel]
[7] = biological target: T1, human CD3, membrane-expressed (CD3/TCR …); assay: flow cytometry on HPB-ALL cells [upper panel]
[8] = biological target: T1, human CD3, membrane-expressed (CD3/TCR …); assay: flow cytometry on HPB-ALL cells [lower panel]; remark: listed apart in the source
[9] = biological target: T1, human CD3, membrane-expressed (CD3/TCR …); assay: flow cytometry on HPB-ALL cells [upper panel]; remark: listed apart in the source

T1 sequence (P07766 23-207, chain 1 of 3): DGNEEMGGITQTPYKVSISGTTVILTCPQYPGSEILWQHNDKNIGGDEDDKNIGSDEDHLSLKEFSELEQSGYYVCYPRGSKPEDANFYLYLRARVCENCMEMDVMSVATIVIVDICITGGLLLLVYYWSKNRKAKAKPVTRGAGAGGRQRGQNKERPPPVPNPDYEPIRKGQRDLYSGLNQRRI
T1 sequence (P04234 22-171, chain 2 of 3): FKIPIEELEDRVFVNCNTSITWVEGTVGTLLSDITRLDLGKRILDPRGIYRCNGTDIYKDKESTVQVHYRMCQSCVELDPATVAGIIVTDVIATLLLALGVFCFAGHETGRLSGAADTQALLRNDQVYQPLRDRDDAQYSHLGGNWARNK
T1 sequence (P09693 23-182, chain 3 of 3): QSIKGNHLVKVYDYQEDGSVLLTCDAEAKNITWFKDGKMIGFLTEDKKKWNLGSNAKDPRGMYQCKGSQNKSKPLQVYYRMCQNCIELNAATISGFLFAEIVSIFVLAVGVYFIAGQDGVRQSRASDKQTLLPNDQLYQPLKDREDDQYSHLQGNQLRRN

B1: PG3873 (antibody, V domains shown)
VH: QVQLVQSGGGVVQPGRSLRLSCVASGFTFSSYGMHWVRQAPGKGLEWVAAIWYQGRKQDYADSVKGRFTISRDNSKNTLYLQMNSLRAEDTAVYYCTRGTGYNWFDPWGQGTLVTVSS
VL: not shown
notes: Full length monoclonal IgG; also called MF3873 as IgG
binding result [1]: no binding (tested: 10 µg/ml)

B2: 5196×4327 DM-Fc bsAb (bispecific antibody, V domains shown)
VH 1: QVQLVQSGGGVVQPGRSLRLSCVASGFTFSSYGMHWVRQAPGKGLEWVAAIWYNARKQDYADSVKGRFTISRDNSKNTLYLQMNSLRAEDTAVYYCTRGTGYNWFDPWGQGTLVTVSS
VH 2: QVQLVQSGAEVKKPGASVKVSCKASGYTFTSYYMHWVRQAPGQGLEWMGIINPSGGSTSYAQKFQGRVTMTRDTSTSTVYMELSSLRSEDTAVYYCAKGTTGDWFDYWGQGTLVTVSS
VL: not shown
notes: Full length bispecific IgG with the lower hinge/CH2 changes at positions 235-236 (DM-Fc; L235G, G236R) and CH3 heterodimerisation (KK/DE variants) as in WO2014/051433
fold higher affinity of the CLEC12A arm than of the human CD3 binding arm [2]: ~60 fold | binding result [3]: binds | Kd [4]: 3 nM

B3: PG5196 (antibody, V domains shown)
VH: QVQLVQSGGGVVQPGRSLRLSCVASGFTFSSYGMHWVRQAPGKGLEWVAAIWYNARKQDYADSVKGRFTISRDNSKNTLYLQMNSLRAEDTAVYYCTRGTGYNWFDPWGQGTLVTVSS
VL: not shown
notes: Full length monoclonal IgG; also called PG5196 mAb; MF5196 as IgG
binding result [5]: binds

B4: PG5626 (antibody, V domains shown)
VH: QVQLVQSGGGVVQPGRSLRLSCVASGFTFSSYGMHWVRQAPGKGLEWVAAIWYNARKQEYRDSVKGRFTISRDNSKNTLYLQMNSLRAEDTAVYYCTRGTGYNWFDPWGQGTLVTVSS
VL: not shown
notes: Monospecific IgG format; also called MF5626 in monospecific IgG format
binding result [6]: binds

B5: PG5616 (antibody, V domains shown)
VH: QVQLVQSGGGVVQPGRSLRLSCVASGFTFSSYGMHWVRQAPGKGLEWVAAIWYNARKQEYNDSVKGRFTISRDNSKNTLYLQMNSLRAEDTAVYYCTRGTGYNWFDPWGQGTLVTVSS
VL: not shown
notes: Monospecific IgG format; also called MF5616 in monospecific IgG format
binding result [6]: binds

B6: PG5694 (antibody, V domains shown)
VH: QVQLVQSGGGVVQPGRSLRLSCVASGFTFSSYGMHWVRQAPGKGLEWVAAIWYNARKQEYSDSVKGRFTISRDNSKNTLYLQMNSLRAEDTAVYYCTRGTGYNWFDPWGQGTLVTVSS
VL: not shown
notes: Monospecific IgG format; also called MF5694 in monospecific IgG format
binding result [7]: binds

B7: PG5630 (antibody, V domains shown)
VH: QVQLVQSGGGVVQPGRSLRLSCVASGFTFSSYGMHWVRQAPGKGLEWVAAIWYNARKQDYADSVKGRFTISRDNSKNTLYLQMNSLRAEDTAVYYCTRGTGYNWYDPWGQGTLVTVSS
VL: not shown
notes: Monospecific IgG format; also called MF5630 in monospecific IgG format
binding result [7]: binds

B8: PG5648 (antibody, V domains shown)
VH: QVQLVQSGGGVVQPGRSLRLSCVASGFTFSSYGMHWVRQAPGKGLEWVAAIWYNARKQEYLDSVKGRFTISRDNSKNTLYLQMNSLRAEDTAVYYCTRGTGYNWFDPWGQGTLVTVSS
VL: not shown
notes: Monospecific IgG format; also called MF5648 in monospecific IgG format
binding result [7]: binds

B9: PG5603 (antibody, V domains shown)
VH: QVQLVQSGGGVVQPGRSLRLSCVASGFTFSSYGMHWVRQAPGKGLEWVAAIWYNARKQEYIDSVKGRFTISRDNSKNTLYLQMNSLRAEDTAVYYCTRGTGYNWFDPWGQGTLVTVSS
VL: not shown
notes: Monospecific IgG format; also called MF5603 in monospecific IgG format
binding result [7]: binds

B10: PG5351 (antibody, V domains shown)
VH: QVQLVQSGGGVVQPGRSLRLSCAASGFTFSSYGMHWVRQAPGKGLEWVAMIWYDGKNTYYADSVKGRFTISRDNSKNTLYLQMNSLRAEDTAVYYCTRGTGYNWFDPWGQGTLVTVSS
VL: not shown
notes: Monospecific IgG format; also called MF5351 in monospecific IgG format
binding result [8]: binds

B11: PG5356 (antibody, V domains shown)
VH: QVQLVESGGGVVQPGRSLRLSCAASGFTFSKYGMHWVRQAPGKGLEWVAQIWHDGRKTYYADSVKGRFTISRDNSKNTLYLQMNSLRAEDTAVYYCTRGTGYNWFDPWGQGTLVTVSS
VL: not shown
notes: Monospecific IgG format; also called MF5356 in monospecific IgG format
binding result [8]: binds

B12: PG3905 (antibody, V domains shown)
VH: QVQLVQSGGGVVQPGRSLRLSCVASGFTFSSYGMHWVRQAPGKGLEWVAAIWYGGRKQDYADSVKGRFTISRDNSKNTLYLQMNSLRAEDTAVYYCTRGTGYNWFDPWGQGTLVTVSS
VL: not shown
notes: Full length monoclonal IgG; also called MF3905 as IgG
binding result [1]: no binding (tested: 10 µg/ml)

B13: PG5354 (antibody, V domains shown)
VH: QVQLVQSGGGVVQPGRSLRLSCAASGFTFSGYGMHWVRQAPGKGLEWVAQIYYDGSRTYYADSVKGRFTISRDNSKNTLYLQMNSLRAEDTAVYYCTRGTGYNWFDPWGQGTLVTVSS
VL: not shown
notes: Monospecific IgG format; also called MF5354 in monospecific IgG format
binding result [9]: binds
